For one substance, amount of cross-linked product (ImageJ, against nonspecific bands), stoichiometry N and sum of the amounts of the two cross-linked products (ImageJ) results are on record in publication PMC7396438.

Several values for one entry are separate records, joined by “and”; a condition that tells them apart may be missing. Identical values can stand only once.

Common to all, as to assay: cross-linking; in vivo photo-cross-linking in BamA mutant strains (chromosomal bamA replaced; pBpa at 64, at 132, or at both); blot with antibodies against SurA, bands quantified with ImageJ against nonspecific bands as internal control; repeated twice
The target in one assay is BamA-D132pBpa (E. coli) (UniProt P0A940).
In assay [1] the target is BamA-R64&D132pBpa (E. coli) (UniProt P0A940).
For the next assay, the target named is BamA-R64pBpa (E. coli) (UniProt P0A940).

Sequence of SurA (P0ABZ6 21-428): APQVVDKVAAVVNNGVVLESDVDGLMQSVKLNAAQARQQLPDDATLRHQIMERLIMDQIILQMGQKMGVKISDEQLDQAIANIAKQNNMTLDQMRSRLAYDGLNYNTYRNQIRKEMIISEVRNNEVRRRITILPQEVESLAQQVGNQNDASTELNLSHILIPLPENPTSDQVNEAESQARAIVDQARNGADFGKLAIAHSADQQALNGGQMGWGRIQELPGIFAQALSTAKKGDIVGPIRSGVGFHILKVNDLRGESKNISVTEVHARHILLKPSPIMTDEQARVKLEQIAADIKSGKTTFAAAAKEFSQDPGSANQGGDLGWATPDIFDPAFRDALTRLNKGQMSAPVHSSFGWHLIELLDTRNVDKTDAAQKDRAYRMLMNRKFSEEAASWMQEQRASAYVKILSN

Regarding “SurA (from UniProt P0ABZ6 21-428) (natural protein)”, the amount of cross-linked product (ImageJ, against nonspecific bands) in the assay with BamA-D132pBpa (E. coli) was 2.12; in assay [1], 1 and 1.02; with BamA-R64pBpa (E. coli) it was 1.97. Besides, in assay [1], the stoichiometry N (commonly a count of units in the complex or per binding partner) is 1. The sum of the amounts of the two cross-linked products (ImageJ) in assay [1] was found to be 2.02.
